The target in assay [1] is biotinylated SARS-CoV-2 S1 variant B.1.351 (Example 5) (SARS-CoV-2) (UniProt P0DTC2). Put plainly: phage ELISA screening. In general terms: An ELISA detects its analyte on a solid surface through an enzyme-linked reagent.
In assay [2] the target is biotinylated SARS-CoV-2 S1 variant P.1 (Example 5) (SARS-CoV-2) (UniProt P0DTC2). Put plainly: phage ELISA screening.

For 13 molecules, ELISA results are on record in patent US20230192818A1.

B1: 12-31 (antibody, V domains shown)
VH: QVQLVESGGGVVQPGRSLRLSCAASGFTFSYYTMHWVRQAPGKGLEWVAVTSYDGSNKYYADSVKGRFTISRDNSKNTLYLQMNSLRAEDTAVYYCARPLGGSYFAAFDIWGQGTLVTVSS
VL: EIVLTQSPATLSLSPGERATLSCRASQSIGSYLAWYQQKPGQAPRLLIYDVSNRATGIPARFSGSGSGTDFTLTISSLEPEDFAVYYCQQRDSFTFGGGTKVEIK
B1 displayed an ELISA in assay [1] of 7.01.

B2: 12-32 (antibody, V domains shown)
VH: QVQLVESGGGVVQPGRSLRLSCAASGFTFGTYAMHWVRQAPGKGLEWVAVISYDGNNKYYADSVKGRFTISRDNSKNTLYLQMNSLRAEDTAVYYCAKTMSGSYFSAFDIWGQGTLVTVSS
VL: EIVLTQSPATLSLSPGERATLSCRASQSIGSYLAWYQQKPGQAPRLLIYDVSNRATGIPARFSGSGSGTDFTLTISSLEPEDFAVYYCQQRDSFTFGGGTKVEIK
In turn, B2 yielded an ELISA in assay [1] of 6.88.

B3: 12-34 (antibody, V domains shown)
VH: QVQLVESGGGVVQPGRSLRLSCAASGFIFRSYAMHWVRQAPGKGLEWVAVISYDGSSKYYADSVKGRFTISRDNSKNTLYLQMNSLRAEDTAVYYCARPSGGSYFDPFDYWGQGTLVTVSS
VL: EIVLTQSPATLSLSPGERATLSCRASQSVGNFLAWYQQKPGQAPRLLIYDASNRATGIPARFSGSGSGTDFTLTISSLEPEDFAVYYCQHRRLLTFGGGTKVEIK
B3 yielded an ELISA in assay [1] of 5.81.

B4: 12-43 (antibody, V domains shown)
VH: QVQLVESGGGVVQPGRSLRLSCAASGFIFSSYGMHWVRQAPGKGLEWVAVISYDGSNEYYADSVKGRFTISRDNSKNTLYLQMNSLRAEDTAVYYCARPRSGSYLSAFDYWGQGTLVTVSS
VL: EIVLTQSPATLSLSPGERATLSCRASQSVGKSLAWYQQKPGQAPRLLIYDTSNRATGIPARFSGSGSGTDFTLTISSLEPEDFAVYYCQQRGSFPLTFGGGTKVEIK
Molecule B4 gave an ELISA in assay [1] of 4.82.

B5: 12-29 (antibody, V domains shown)
VH: QVQLVESGGGVVQPGRSLRLSCAASGFSFSNYGMHWVRQAPGKGLEWVAVISYDGNNKYYADSVKGRFTISRDNSKNTLYLQMNSLRAEDTAVYYCARSKGGSYYGPFDDWGQGTLVTVSS
VL: EIVLTQSPATLSLSPGERATLSCRASQIISSYLAWYQQKPGQAPRLLIYDTSNRATGIPARFSGSGSGTDFTLTISSLEPEDFAVYYCQVRSNWPPLTFGGGTKVEIK
On to B5, for which, in assay [1], the ELISA was determined as 7.55.

B6: 13-5 (antibody, V domains shown)
VH: QVQLVESGGGVVQPGRSLRLSCAASGFIFRSYAMHWVRQAPGKGLEWVAVISYDGSSKYYADSVKGRFTISRDNSKNTLYLQMNSLRAEDTAVYYCARPLGGGYQDAFDIWGQGTLVTVSS
VL: EIVLTQSPATLSLSPGERATLSCRASQSIGSYLAWYQQKPGQAPRLLIYDVSNRATGIPARFSGSGSGTDFTLTISSFEPEDFAVYYCQQRHHWPPVTFGGGTKVEIK
Molecule B6 displayed an ELISA in assay [2] of 10.3.

B7: 12-36 (antibody, V domains shown)
VH: QVQLVESGGGVVQPGRSLRLSCAASGFSFNNYGMHWVRQAPGKGLEWVAVISYDGSNDYYADSVKGRFTISRDNSKNTLYLQMNSLRAEDTAVYYCARPNSGSYSNYFDYWGQGTLVTVSS
VL: EIVLTQSPATLSLSPGERATLSCRASQGISTYLAWYQQKPGQAPRLLIYDASNRATGIPARFSGSGSGTDFTLTISSLEPEDFAVYYCQQRRRWPPTFGGGTKVEIK
As for B7, the ELISA in assay [1] is 5.51.

B8: 13-3 (antibody, V domains shown)
VH: QVQLVESGGGVVQPGRSLRLSCAASGFSFNNHAMHWVRQAPGKGLEWVAVISYDGSDKYYADSVKGRFTISRDNSKNTLYLQMNSLRAEDTAVYYCARNLLRGYGMDVWGQGTLVTVSS
VL: DIQMTQSPSSLSASVGDRVTITCRASQSIGDYLNWYQQKPGKAPKLLIYEASSLQSGVPSRFSGSGSGTDFTLTISSLQPEDFATYYCLHTYLPPYSFGQGTKVEIK
Regarding B8, the ELISA in assay [2] turned out to be 19.5.

B9: 13-4 (antibody, V domains shown)
VH: QVQLVESGGGVVQPGRSLRLSCAASGFAFDDYAMHWVRQAPGKGLEWVAVISYDGSNKYYADSVKGRFTISRDNSKNTLYLQMNSLRAEDTAVYYCATLGYGDYPDYWGQGTLVTVSS
VL: DIQMTQSPSSLSASVGDRVTITCRASQSITRYLNWYQQKPGKAPKLLIYAASSLQSGVPSRFSGSGSGTDFTLTISSLQPEDFATYYCQQTYNFPHTFGQGTKVEIK
B9 had an ELISA in assay [2] of 18.9.

B10: 12-37 (antibody, V domains shown)
VH: QVQLVESGGGVVQPGRSLRFSCAGTGFTFSSYAMHWVRQAPGKGLEWVAVISYDGSNQYYADSVKGRFTISRDNSKNTLYLQMNSLRAEDTAVYYCARSRSGSYLAYFDYWGQGTLVTVSS
VL: EIELTQSPATLSLSPGERATLSCRASESVSESLAWYQQKPGQAPRLLIYDASNRATGIPARFSGSGSGTDFTLTISSLEPEDFAVYYCQQRTHGVTFGGGTKVEIK
On to B10, for which the ELISA in assay [1] is 5.5.

B11: 12-42 (antibody, V domains shown)
VH: QVQLVESGGGVVQPGRSLRLSCAASGFTFGSYGMHWVRQAPGKGLEWVAVISYDGSHKYYADSVKGRFTISRDNSKNTLYLQMNSLRAEDTAVYYCARALGGNYYYFDYWGQGTLVTVSS
VL: EIVLTQSPATLSLSPGERATLSCRASQSVDSRLAWYQQKPGQAPRLLIYDTSNRATGIPARFSGSGSGTDFTLTISSLEPEDFAVYYCQQRSSNWTFGGGTKVEIK
For B11, the ELISA in assay [1] was found to be 4.93.

B12: 13-1 (antibody, V domains shown)
VH: QVQLVESGGGVVQPGRSLRLSCAASGFTFSSYSMHWVRQAPGKGLEWVAVISYDGRNQYYADSVKGRFTISRDNSKNTLYLQMNSLRAEDTAVYYCAKGYGGNYYYMDGWGQGTLVTVSS
VL: EIVLTQSPATLSLSPGERATLSCRASQSVGDFLAWYQQKPGQAPRLLIYDTSNRATGIPARFSGSGSGTDFTLTISSLEPEDFAVYYCQQRSIRGTFGGGTKVEIK
The molecule B12 gave an ELISA in assay [2] of 22.2.

B13: 12-39 (antibody, V domains shown)
VH: QVQLVESGGGVVQPGRSLRLSCAASGFTFSSYAMHWVRQAPGKGLEWVAVISYDGNHEYYADSVKGRFTISRDNSKNTLYLQMNSLRAEDTAVYYCARAHSGSYFSHFDYWGQGTLVTVSS
VL: EIVLTQSPATLSLSPGERATLSCRASESISTYLAWYQQKPGQAPRLLIYDASNRATGIPARFSGSGSGTDFTLTISSLEPEDLAVYYCQQRRNSLTFGGGTKVEIK
Turning to B13, the ELISA in assay [1] turned out to be 5.09.
